# From article PMC11908824, “UGT74B5-mediated glucosylation at ortho hydroxyl groups of benzoic acid derivatives regulating plant immunity to anthracnose in tea plants” (Horticulture Research, 2025)
# B1: CsUGT74B5 (rCsUGT74B5) (Camellia sinensis) (protein)
# chain: MEQRNHGGHVVVLPYPSQGHINPLLQFAKRLASKGVKATLATTHYTVKSICVPNIAVEPISDGFDNGGFTQARAEDVYLKSLRENGSRTLSQLIEKHKNTNFPINCVVYDSFFPWALDVAKTHGIYGAPFFTNSATVCAIFCHVHHGLVKLPVKVEELPLVLPGIPPLNLVDLPSFVQAPESYPAYLAMKLSQYSNLDKADWVFGNTFEELEGEAVKNVLELWPGKMIGPMVPSAYLDGRIEEDKGYGASLWKPLSSDCAKWLEAKPSQSVVYVSFGSMVSLTEEQMEEMAWGLKGSNLDFIWVVRESEITKLPSEFTNSTAQEKGLIVTWCNQLEMLAHQAIGCFVTHCGWNSTLEGLSLGVPMVGVPKWTDQLTDAKFIEEIWGVGFRAKEDEKGVVRREELMGCLKEVMEGERSVEIRKNCCKWKELAKEAISEGGSSDKSIDEFVEQLKSGNEKGVVKYLTNGNGHY
# notes: full CDS in pMAL-c2X (N-terminal MBP fusion, tag cleavage not mentioned), expressed in E. coli Novablue (DE3), amylose resin purified
# Legend:
# [1] = substrate: O=C(O)c1c(O)cccc1O; assay: LC-MS glucosyltransferase assay; format: biochemical, Camellia sinensis; conditions: 2.5 mM UDP-glucose, optimal conditions (pH 8.0-8.5, 30°C), 0-300 μM substrate
# [2] = substrate: O=C(O)c1ccccc1O; assay: LC-MS glucosyltransferase assay; format: biochemical, Camellia sinensis; conditions: 2.5 mM UDP-glucose, optimal conditions (pH 8.0-8.5, 30°C), 0-300 μM substrate
protein,measurement,setting,value
B1,Km,[1],15.26 µM
same,Km,[2],42.01 µM
